Key:
COBRA HA J4 = COBRA HA J4 (COBRA J4, designed from influenza A …); experiment: BLI; conditions: both partners purified
COBRA HA TJ2 = COBRA HA TJ2 (COBRA TJ2, designed from influenza A …); experiment: BLI; conditions: both partners purified

B1: mAb TJ5-13 (antibody, V domains shown)
V domain 1: QVQLVQSGAEVKKPGSSVKVSCEASGDTFTTYSGINWVRQAPGQGLEWMGGVLPNFGSPNYAQRFQGRITITVDRSTSLVHMELTNLRSDDTAVYYCTETGAYNSVGYFPYFQFRGQGTLVSVSS
V domain 2: QSVLTQPPSVSGAPGQRVTISCTGSSSNIGADYDVHWYQQLPGTAPKLLIFGNNNRPSGVPDRFSGSKSGTSASLAITGLQAEDEADYYCQSFDKSLSGSFVFGTGTKVTGQ
**Q.** Which results are given for B1?
**A.** Kd (COBRA HA J4): 0.26 nM; koff (COBRA HA J4): 3.06e-05 s⁻¹; kon (COBRA HA J4): 120000 M⁻¹ s⁻¹; Kd (COBRA HA TJ2): 0.05 nM; koff (COBRA HA TJ2): 8.68e-06 s⁻¹; kon (COBRA HA TJ2): 159000 M⁻¹ s⁻¹

B2: mAb TJ5-1 (antibody, V domains shown)
VH: EVQLVQSGAEVKKPGASVKVSCKASGYTFTGFYLHWVRQAPGQGLEWMGWINPHSGDTDFAQKFQGKVTMTRDTSSNTVYMDVNRLTSDDTAVYYCVKNDIVLGMGVWGQGTTVIVSS
VL: QSVLTQPPSVSGAPGQRVTISCTGSSSNIGAGYNVYWFQQLPPTAPKLLNYGDNNRPSGVPDRFSASKSGTSASLAITGLQAEDEAEYYCQSYDSSLNAYVFGTGTKVTVL
**Q.** For B2, which Kd (COBRA HA J4) is on record?
**A.** Its Kd is 0.23 nM.

**Q.** And the koff (COBRA HA J4)?
**A.** The koff was 6.67e-05 s⁻¹.

**Q.** What about the kon (COBRA HA J4) of the same binder?
**A.** Its kon is 284000 M⁻¹ s⁻¹.

**Q.** And the Kd (COBRA HA TJ2)?
**A.** Its Kd is 5.64 nM.

**Q.** What about the koff (COBRA HA TJ2) of the same binder?
**A.** Its koff is 0.00348 s⁻¹.

**Q.** And the kon (COBRA HA TJ2)?
**A.** Its kon is 230000 M⁻¹ s⁻¹.

B3: mAb #1664 (antibody, V domains shown)
VH: EVQVMQSGAEARMTGATVKISCKASGYTFSDYFLHWVKQAPGKGLEWMGLVDVDNGEVRYAEKFQGRVTITADTSTETAYLEMTTVTSGDTAVYYCASTTPRGGNPSVYNYFFVDVWGKGTTVTVSS
VL: QPVLTQSSSASASLGSSVKLTCTLSSGHDNYIIAWHQQQPGKAPRYLMQVGAGGTYNKGSGVPHRFSGSSSGADRYLTISNLQSDDEADYYCETWDSKTVFGGGTTLTVL
**Q.** Which results are given for B3?
**A.** Kd (COBRA HA J4): 15.2 nM; koff (COBRA HA J4): 0.000454 s⁻¹; kon (COBRA HA J4): 30100 M⁻¹ s⁻¹; Kd (COBRA HA TJ2): 0.45 nM; koff (COBRA HA TJ2): 5.44e-05 s⁻¹; kon (COBRA HA TJ2): 121000 M⁻¹ s⁻¹

— PMC12455949 (Journal of Virology, 2025)
